Data published in patent US20130224235A1.

Key:
Experiment in all cases: indirect ELISA, protein coated, serum 1:100
[1] = biological target: 6xHis tagged N-terminal fusion protein (gp100 209-217(2M) peptide fused to PVA CP N-terminus) expres (Potato virus A (isolate B11)) (UniProt Q85197)
[2] = biological target: 6xHis tagged wild type potato virus A coat protein (wtCP) expressed in E. coli from wtCP/pQE (Potato virus A (isolate B11)) (UniProt Q85197)
[3] = biological target: 6xHis tagged C-terminal fusion protein (gp100 209-217(2M) peptide fused to PVA CP C-terminus) expres (Potato virus A (isolate B11)) (UniProt Q85197)

Measured: optical density at 450 nm

control mouse serum raised against PBS (antibody)
< 0.35 OD 450 nm: all assays above
